This passage reports Kd, fluorescence polarisation without competitor (mP) and IC50 results from PMC4755285 (Journal of biomolecular screening, 2015).

In general, Kd refers to the equilibrium constant for the complex coming apart. Higher therefore signals a looser complex. One may read the IC50 as the concentration needed to halve the response being measured. A lower IC50 goes with greater potency in that assay.

Read-outs that look alike come from different tables or passages of the source. Ends that are not written are not given here.

Common to all, as to assay: fluorescence polarisation
Test [1] has as its target FITC labeled HCN3 peptide (C-terminal 11 amino acids of HCN3).
Test [2] addresses FITC labeled HCN2 peptide (C-terminal 11 amino acids of HCN2).
Test [3] concerns the target FITC labeled HCN1 peptide (C-terminal 11 amino acids of HCN1).
Test [4] concerns the target FITC labeled HCN4 peptide (C-terminal 11 amino acids of HCN4).
Test [5] concerns the target TRIP8b(241-602).
Test [6] deals with T1, His tagged full length TRIP8b (1b-2) isoform.
T1 chain: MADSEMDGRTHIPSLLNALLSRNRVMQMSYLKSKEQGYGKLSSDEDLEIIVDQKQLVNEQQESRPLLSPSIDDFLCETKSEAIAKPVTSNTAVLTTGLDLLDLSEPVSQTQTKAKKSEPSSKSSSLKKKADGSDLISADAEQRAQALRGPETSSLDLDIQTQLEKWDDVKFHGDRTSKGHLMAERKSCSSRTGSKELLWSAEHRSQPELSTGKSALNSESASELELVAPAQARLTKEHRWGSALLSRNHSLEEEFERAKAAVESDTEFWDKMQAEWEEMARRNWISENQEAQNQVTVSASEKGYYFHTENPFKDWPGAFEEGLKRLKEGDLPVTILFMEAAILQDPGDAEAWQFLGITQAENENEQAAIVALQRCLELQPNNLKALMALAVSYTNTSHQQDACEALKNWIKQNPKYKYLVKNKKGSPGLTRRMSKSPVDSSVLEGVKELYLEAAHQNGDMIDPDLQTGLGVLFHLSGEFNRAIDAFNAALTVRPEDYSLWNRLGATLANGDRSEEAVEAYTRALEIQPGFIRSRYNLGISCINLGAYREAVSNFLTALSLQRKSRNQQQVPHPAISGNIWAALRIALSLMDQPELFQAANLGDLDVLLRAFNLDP

The target of test [7] is TRIP8b(241-602). This is another data set of the same source.
The target in test [8] is TRIP8b(241-602). The source holds these as a separate data set.
The target in test [9] is TRIP8b(241-602). This is another data set of the same source.

Turning to TRIP8b(241-602) (domain or fragment), the Kd in [1] turned out to be 10200 nM; in test [2], 910 nM; in test [3] it was 1230 nM; in test [4], 810 nM. The molecule further yielded a fluorescence polarisation without competitor (mP) in test [3] of 224 mP.

Regarding EPVRSKLPSNL [unlabeled HCN4 peptide], the IC50 in the test with TRIP8b(241-602) [5] turned out to be 1930 nM. This counts as single-digit micromolar.

Regarding DAEKPRFASNL (also: FITC label, position not given here) [FITC labeled HCN1 peptide (C-terminal 11 amino acids of HCN1)], the Kd in test [6] was determined as 1030 ± 20 nM; with TRIP8b(241-602) [5] it was 800 nM.

Turning to DAEKPRFASNL [unlabeled HCN1 peptide], the IC50 was found to be 700 nM with TRIP8b(241-602) [5], 1770 nM with TRIP8b(241-602) [7], 1600 nM with TRIP8b(241-602) [8] and 890 nM with TRIP8b(241-602) [9].

Regarding DSARSRLSSNL [unlabeled HCN2 peptide], the IC50 in the test with TRIP8b(241-602) [5] was 760 nM. That is a sub-micromolar value.
